This is an account of results in patent publication US9061070B2, “Treating stroke and other diseases without inhibiting N-type calcium channels” (NoNO, Inc., priority 2007, dated 2015).

The target of this test is N-type calcium channels (Mus musculus, UniProt O55017). In words: Whole-cell patch clamp recordings of calcium currents in dorsal root ganglion neurons. The test is classed as cell-based, Swiss mice. The following applies: 100 μM; FIG. 5A.
Sequence of N-type calcium channels (O55017 whole entry): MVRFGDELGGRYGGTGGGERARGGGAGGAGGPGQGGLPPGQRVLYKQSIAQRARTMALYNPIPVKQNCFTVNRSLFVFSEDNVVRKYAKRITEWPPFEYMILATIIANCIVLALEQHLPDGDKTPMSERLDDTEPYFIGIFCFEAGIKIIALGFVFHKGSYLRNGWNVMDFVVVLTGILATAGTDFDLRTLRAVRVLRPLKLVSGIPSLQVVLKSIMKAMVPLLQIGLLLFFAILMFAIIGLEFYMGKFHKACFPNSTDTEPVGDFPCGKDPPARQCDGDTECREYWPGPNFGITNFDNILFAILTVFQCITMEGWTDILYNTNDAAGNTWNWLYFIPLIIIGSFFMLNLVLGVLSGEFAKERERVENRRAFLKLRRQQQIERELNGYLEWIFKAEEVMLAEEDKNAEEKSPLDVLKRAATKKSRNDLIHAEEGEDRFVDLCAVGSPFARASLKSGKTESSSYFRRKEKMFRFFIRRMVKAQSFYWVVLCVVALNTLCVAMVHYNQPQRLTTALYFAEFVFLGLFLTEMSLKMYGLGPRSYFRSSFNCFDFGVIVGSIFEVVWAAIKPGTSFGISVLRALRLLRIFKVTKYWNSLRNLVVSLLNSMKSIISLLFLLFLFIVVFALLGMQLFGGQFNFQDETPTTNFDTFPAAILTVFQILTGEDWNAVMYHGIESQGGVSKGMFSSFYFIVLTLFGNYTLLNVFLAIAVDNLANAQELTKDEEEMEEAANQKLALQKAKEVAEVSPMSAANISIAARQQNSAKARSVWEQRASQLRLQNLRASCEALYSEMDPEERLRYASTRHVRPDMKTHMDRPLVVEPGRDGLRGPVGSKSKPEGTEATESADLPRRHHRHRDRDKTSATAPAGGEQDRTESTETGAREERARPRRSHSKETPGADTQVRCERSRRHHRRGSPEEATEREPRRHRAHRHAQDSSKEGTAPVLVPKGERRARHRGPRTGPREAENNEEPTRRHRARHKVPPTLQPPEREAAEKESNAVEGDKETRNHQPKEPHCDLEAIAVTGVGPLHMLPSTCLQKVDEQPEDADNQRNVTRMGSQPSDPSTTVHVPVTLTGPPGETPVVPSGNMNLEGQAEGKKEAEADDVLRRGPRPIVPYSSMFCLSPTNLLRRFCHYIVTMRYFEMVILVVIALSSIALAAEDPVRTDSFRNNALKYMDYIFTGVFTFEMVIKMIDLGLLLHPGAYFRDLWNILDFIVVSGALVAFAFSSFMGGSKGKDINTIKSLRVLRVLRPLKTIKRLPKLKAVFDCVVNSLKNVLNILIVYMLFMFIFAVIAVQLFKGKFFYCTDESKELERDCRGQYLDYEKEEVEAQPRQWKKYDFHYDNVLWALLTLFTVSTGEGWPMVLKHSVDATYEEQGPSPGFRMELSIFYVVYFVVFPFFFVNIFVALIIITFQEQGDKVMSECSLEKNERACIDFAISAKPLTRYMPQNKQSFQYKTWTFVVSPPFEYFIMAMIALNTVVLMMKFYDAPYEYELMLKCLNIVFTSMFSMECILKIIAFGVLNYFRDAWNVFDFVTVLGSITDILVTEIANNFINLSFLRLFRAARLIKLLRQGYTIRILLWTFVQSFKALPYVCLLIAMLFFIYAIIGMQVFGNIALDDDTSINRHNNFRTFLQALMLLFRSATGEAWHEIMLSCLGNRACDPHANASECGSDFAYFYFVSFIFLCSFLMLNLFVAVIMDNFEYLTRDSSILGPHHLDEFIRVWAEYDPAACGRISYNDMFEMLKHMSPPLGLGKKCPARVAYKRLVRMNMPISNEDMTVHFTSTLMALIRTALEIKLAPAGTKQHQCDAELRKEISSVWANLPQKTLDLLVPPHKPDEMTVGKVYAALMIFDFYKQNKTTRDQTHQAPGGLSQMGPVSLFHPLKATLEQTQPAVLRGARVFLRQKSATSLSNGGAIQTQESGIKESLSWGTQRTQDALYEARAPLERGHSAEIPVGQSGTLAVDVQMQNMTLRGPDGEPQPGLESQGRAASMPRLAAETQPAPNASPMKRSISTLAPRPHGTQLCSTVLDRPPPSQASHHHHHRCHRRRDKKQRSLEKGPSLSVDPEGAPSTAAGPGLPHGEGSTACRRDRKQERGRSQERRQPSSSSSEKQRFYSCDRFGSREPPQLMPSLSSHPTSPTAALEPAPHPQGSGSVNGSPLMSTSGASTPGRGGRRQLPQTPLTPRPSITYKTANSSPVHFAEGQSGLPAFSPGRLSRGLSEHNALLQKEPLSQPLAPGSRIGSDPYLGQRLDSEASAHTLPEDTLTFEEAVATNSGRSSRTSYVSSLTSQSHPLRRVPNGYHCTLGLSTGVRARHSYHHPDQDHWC
Sequence of N-type calcium channels (O08532 25-956 partner limits assumed): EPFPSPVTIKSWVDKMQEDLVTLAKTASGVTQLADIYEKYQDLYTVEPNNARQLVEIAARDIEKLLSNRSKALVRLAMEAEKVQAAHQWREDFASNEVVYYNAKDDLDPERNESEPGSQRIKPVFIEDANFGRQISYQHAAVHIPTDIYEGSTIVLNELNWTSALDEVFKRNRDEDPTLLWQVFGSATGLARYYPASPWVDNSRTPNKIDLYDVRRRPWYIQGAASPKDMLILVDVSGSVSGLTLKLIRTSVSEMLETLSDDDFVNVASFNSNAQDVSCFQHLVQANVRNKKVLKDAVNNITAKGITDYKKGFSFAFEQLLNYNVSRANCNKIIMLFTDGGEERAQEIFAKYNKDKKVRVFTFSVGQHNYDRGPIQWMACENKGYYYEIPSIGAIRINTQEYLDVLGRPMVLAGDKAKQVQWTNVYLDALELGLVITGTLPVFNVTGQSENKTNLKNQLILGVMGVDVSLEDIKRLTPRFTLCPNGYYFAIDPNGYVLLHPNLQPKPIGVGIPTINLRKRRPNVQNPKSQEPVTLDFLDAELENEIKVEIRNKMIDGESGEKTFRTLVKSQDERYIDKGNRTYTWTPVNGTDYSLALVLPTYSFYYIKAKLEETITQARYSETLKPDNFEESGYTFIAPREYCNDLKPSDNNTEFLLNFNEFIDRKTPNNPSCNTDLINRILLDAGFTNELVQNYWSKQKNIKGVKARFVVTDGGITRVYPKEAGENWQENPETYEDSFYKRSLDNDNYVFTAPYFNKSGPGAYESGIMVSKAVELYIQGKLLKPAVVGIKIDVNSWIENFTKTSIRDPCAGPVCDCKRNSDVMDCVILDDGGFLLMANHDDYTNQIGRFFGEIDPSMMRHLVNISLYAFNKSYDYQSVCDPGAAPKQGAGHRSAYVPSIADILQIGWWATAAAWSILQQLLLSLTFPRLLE
Sequence of N-type calcium channels (O08532 957-1103 partner limits assumed): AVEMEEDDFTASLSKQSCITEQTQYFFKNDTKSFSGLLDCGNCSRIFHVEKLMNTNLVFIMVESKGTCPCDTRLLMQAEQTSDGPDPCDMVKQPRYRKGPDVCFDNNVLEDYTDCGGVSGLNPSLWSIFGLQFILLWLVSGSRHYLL
Sequence of N-type calcium channels (P54285 whole entry partner): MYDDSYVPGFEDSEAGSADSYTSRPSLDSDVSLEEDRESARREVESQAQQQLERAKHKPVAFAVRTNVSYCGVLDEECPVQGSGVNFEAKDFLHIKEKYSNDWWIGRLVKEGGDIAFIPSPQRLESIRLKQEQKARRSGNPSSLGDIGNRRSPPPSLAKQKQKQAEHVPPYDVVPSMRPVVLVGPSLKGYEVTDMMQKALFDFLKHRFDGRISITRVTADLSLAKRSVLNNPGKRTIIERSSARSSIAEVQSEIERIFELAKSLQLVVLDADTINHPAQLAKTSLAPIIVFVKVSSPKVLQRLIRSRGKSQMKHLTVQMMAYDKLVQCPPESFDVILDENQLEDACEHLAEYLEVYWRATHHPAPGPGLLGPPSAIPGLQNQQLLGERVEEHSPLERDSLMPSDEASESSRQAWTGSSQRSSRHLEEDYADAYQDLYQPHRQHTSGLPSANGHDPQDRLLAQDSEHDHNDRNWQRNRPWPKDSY

As to “YGRKKRRQRRRKLSSIESDV [Tat-NR2B9c, reference compound]”, the “additional inhibition once N-channels are blocked by omega conotoxin (1 μM)” value is “no additional inhibition”.
